Patent US20260034246A1

How the values were obtained:
[1] = molecular target: Cyno Complement C5 Protein (cynomolgous macaque)
[2] = molecular target: Human Complement C5 Protein (human) (UniProt P01031)
[3] = molecular target: Mouse Complement C5 Protein (mouse) (UniProt P06684)

recombinant C5 inhibitor (C5I) protein (from UniProt Q5YD59 19-168)
Kd [1]: 5.09 nM
Kd [2]: 10.2 nM
Kd [3]: 6.28 nM
